Experimental findings from publication PMC11476435, “Functional Relationships between L1CAM, LC3, ATG12, and Aβ” (International Journal of Molecular Sciences, 2024) are described below.

First the molecules themselves.
B1: recombinant human ATG12 (autophagy-related protein 12) (natural protein, UniProt O94817 1-140, looked up)
chain: MAEEPQSVLQLPTSIAAGGEGLTDVSPETTTPEPPSSAAVSPGTEEPAGDTKKKIDILLKAVGDTPIMKTKKWAVERTRTIQGLIDFIKKFLKLVASEQLFIYVNQSFAPSPDQEVGTLYECFGSDGKLVLHYCKSQAWG
notes: source: bought: BIOZOL

Settings in all cases: both partners purified
Experiment [1] addresses T1, L1Fc, extracellular domain of mouse L1 fused to Fc from human IgG (mouse, UniProt P11627 35-1112).
T1 construct: The methods say that the Fc fusion presents dimers, not monomeric domains; also called extracellular domain of L1; soluble L1Fc chimera; source: recombinant, production and purification described in [111]
Briefly: ELISA; recombinant human ATG12 (10 µg/mL) coated on 384-well plates; different concentrations (1–200 µg/mL) of L1Fc or CHL1Fc in solution, 1 h at room temperature; detected with HRP-coupled anti-Fc antibody. A general note: In an ELISA, binding on a coated surface is turned into a signal by an enzyme label.

Experiment [2] deals with recombinant human LC3B (microtubule-associated protein 1 light-chain 3) (human, UniProt Q9GZQ8 1-120). Briefly: ELISA; competition: recombinant LC3B, ATG12 or Aβ1-42 coated; L1Fc in solution alone or with a 20-fold molar excess of Aβ, L1-LIR peptide or mutated LIR peptide as competitor, 1 h at room temperature; detected with HRP-coupled anti-Fc antibody.
The target of experiment [3] is B1. The experiment is described as above.

T1 sequence (P11627 35-1112): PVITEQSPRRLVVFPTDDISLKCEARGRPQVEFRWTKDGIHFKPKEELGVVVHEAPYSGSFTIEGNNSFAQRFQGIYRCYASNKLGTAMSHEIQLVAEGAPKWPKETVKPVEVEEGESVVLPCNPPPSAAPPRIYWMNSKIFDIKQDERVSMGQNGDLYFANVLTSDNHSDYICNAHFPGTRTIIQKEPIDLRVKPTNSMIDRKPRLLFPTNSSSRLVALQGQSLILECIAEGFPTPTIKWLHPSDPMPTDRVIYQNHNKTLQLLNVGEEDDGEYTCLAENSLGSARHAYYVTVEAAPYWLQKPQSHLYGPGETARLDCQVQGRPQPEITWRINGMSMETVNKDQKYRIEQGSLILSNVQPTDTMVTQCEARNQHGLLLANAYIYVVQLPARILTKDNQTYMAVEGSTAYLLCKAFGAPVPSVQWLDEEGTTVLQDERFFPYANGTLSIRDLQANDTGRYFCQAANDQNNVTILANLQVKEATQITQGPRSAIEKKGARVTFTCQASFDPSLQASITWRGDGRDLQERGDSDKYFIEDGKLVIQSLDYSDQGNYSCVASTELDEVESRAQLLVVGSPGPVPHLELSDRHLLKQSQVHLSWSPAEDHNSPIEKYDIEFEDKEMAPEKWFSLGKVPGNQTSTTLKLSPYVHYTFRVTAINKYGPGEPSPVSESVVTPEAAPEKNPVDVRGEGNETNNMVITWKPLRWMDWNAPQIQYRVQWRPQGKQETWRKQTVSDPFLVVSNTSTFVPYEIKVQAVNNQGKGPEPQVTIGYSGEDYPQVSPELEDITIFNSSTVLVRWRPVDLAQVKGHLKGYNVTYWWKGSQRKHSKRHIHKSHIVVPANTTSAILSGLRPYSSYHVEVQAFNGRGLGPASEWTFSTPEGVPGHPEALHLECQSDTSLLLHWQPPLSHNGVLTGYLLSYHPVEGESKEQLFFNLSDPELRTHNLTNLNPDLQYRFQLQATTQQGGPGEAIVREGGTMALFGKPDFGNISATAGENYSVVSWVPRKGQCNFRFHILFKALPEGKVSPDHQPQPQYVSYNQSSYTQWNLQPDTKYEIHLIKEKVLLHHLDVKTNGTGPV

On to B1, for which the binding result in experiment [1] was “binds”.

B2: mouse L1-LIR peptide containing the extracellular LC3-interacting region (LIR) motif of L1 (peptide)
peptide: SHNGVLTGYLLSYHPVEGESKEQ
notes: 23-amino-acid peptide of mouse L1 with the LIR motif 952LSYHPV957 of the fourth fibronectin type III homologous repeat; source: synthetic peptide, bought: Schafer-N
Turning to B2, the binding result in experiment [2] and in experiment [3] was “binds” each time.
